Drawing on patent US20220332804A1 (CSL INNOVATION, published 2022), this text covers Fold diff for one molecule.

What all share (assay): SPR, KD relative to WT C2;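 also: biacore SPR at 37 °C, anti-C2 mAbs captured via immobilised goat anti-human IgG, C2 alanine or serine surface mutants as analytes, 1:1 model fitted, double-referenced sensograms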
Background: SPR reads the build-up and loss of mass on a sensor chip optically.

One test concerns the target T1, human C2 I320A (human, UniProt P06681 21-752).
T1 sequence: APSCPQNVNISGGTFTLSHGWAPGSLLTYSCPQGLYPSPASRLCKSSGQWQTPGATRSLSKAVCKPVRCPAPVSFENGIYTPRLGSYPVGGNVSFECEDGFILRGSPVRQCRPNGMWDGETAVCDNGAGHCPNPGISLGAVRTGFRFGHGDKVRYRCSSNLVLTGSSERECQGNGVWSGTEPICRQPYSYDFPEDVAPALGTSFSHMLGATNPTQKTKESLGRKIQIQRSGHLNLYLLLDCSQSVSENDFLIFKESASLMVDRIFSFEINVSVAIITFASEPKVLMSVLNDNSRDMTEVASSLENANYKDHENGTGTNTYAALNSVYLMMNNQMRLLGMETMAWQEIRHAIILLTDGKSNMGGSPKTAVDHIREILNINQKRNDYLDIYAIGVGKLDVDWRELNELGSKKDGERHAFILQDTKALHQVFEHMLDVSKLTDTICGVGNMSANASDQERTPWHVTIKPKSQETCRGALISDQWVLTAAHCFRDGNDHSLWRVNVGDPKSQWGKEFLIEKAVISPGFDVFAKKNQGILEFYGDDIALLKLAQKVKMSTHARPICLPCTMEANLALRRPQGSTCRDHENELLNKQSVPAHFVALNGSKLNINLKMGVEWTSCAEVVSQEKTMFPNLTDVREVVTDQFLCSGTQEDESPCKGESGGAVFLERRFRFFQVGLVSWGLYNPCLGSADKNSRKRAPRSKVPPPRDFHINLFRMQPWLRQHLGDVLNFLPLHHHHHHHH

Another test deals with T2, human C2 E324A (human, UniProt P06681 21-752).
T2 sequence: T1 sequence with A300I, E304A

A further test addresses T3, human C2 T491A (human, UniProt P06681 21-752).
T3 sequence: T1 sequence with A300I, T471A

A further test deals with T4, human C2 R719A (human, UniProt P06681 21-752).
T4 sequence: T1 sequence with A300I, R699A

Residue numbers refer to the chain shown, from its start.

B1: RF16-226 (antibody, human IgG4 S228P, lambda)
heavy: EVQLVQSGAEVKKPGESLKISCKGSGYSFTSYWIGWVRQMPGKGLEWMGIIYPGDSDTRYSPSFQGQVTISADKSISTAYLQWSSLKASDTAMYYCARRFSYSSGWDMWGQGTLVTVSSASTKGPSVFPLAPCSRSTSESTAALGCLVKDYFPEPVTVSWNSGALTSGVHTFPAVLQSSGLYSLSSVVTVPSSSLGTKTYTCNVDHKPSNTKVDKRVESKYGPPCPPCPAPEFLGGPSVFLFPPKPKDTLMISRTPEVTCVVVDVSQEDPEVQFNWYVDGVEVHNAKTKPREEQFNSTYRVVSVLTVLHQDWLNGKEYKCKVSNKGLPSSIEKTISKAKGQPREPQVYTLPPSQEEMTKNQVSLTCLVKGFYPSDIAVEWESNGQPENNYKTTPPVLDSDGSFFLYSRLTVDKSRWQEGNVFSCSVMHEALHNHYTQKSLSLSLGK
light: SYELTQPPSVSVSPGQTARITCSGDALTSKYVAWYQQKSGLAPLLVIYEDTRRPSGIPAKFSGSSSGSVATLTISGAHGDDEADYYCYSTDASGHQRVFGGGTKLTVLSQPKAAPSVTLFPPSSEELQANKATLVCLISDFYPGAVTVAWKADGSPVKAGVETTKPSKQSNNKYAASSYLSLTPEQWKSHRSYSCQVTHEGSTVEKTVAPTECS
notes: pH-dependent anti-C2 antibody from a phage display library; also called WT
With B1, the Fold diff turned out to be 12 fold with human C2 I320A, 1 fold with human C2 E324A, 2 fold in the test with human C2 T491A and 1 fold in the test with human C2 R719A.
